Test [1] concerns the target T1, human SIRPA overexpressed on CHO cells (human, UniProt P78324 31-504).
T1 construct: also called CHO-huSIRPA
The test is described as follows: flow, CHO-huSIRPA.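 Further: Anti-SIRPA antibodies applied at 1 µg/mL for 1 h on ice, binding read by flow cytometry using a PE-labelled secondary antibody.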

Another test has as its target T2, Mouse SIRPA D1 Fc (mouse, UniProt P97797 32-150, limits assumed).
T2 sequence: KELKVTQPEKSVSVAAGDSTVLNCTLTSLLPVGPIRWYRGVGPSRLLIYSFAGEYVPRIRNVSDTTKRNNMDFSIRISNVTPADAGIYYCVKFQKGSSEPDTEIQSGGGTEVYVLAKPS
Nature of the test: ForteBio IgG avid.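 Further: antibody IgG captured on AHQ biosensors, then 100 nM Fc-fused SIRP antigen applied for 3 min, followed by 3 min buffer dissociation, kinetics fitted to a 1:1 model.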 Background: Biolayer interferometry detects binding as a change in optical thickness at a sensor tip.

Another test concerns the target T3, Human SIRPA D1 Fc (human, UniProt P78324 32-137).
T3 construct: not shown: human IgG1 Fc
The test is described as follows: ForteBio IgG avid.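 Further: antibody IgG captured on AHQ biosensors, then 100 nM Fc-fused SIRP antigen applied for 3 min, followed by 3 min buffer dissociation, kinetics fitted to a 1:1 model.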

The target of another test is Human SIRPb D1 Fc (human, UniProt O00241 30-148, limits assumed). The test is described as follows: ForteBio IgG avid.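 Further: antibody IgG captured on AHQ biosensors, then 100 nM Fc-fused SIRP antigen applied for 3 min, followed by 3 min buffer dissociation, kinetics fitted to a 1:1 model.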
Test [2] has as its target T4, mouse SIRPA overexpressed on CHO cells (mouse, UniProt P97797 32-513).
T4 construct: also called CHO-muSIRPA
T4 sequence: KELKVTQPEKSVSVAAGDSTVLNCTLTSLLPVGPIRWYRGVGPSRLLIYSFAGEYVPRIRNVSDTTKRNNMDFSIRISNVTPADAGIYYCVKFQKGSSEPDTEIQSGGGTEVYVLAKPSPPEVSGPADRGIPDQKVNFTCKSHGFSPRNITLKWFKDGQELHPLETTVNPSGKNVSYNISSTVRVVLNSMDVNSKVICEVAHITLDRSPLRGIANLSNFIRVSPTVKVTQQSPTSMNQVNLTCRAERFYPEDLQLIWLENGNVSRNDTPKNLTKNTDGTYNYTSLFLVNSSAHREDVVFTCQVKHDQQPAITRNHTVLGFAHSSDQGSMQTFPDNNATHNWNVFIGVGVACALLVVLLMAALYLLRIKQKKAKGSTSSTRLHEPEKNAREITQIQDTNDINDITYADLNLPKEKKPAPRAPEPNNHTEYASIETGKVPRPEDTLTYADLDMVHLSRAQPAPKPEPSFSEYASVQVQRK
The test is described as follows: flow, CHO-muSIRPA.

Test [3] addresses T4, mouse SIRPA overexpressed on CHO cells. Nature of the test: flow, CHO-muSIRPA. This is another data set of the same source.

The values that follow come from patent US20240270866A1 (Alector, published 2024).

Chain of Human SIRPb D1 Fc (O00241 30-148 limits assumed): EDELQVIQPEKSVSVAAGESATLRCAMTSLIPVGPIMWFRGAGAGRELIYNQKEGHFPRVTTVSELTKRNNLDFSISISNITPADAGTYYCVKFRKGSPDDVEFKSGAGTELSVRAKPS
Method for Human SIRPA D1 Fc: (§1) Briefly, ForteBio affinity measurements were performed by loading IgGs on-line onto AHQ sensors. Sensors were equilibrated off-line in assay buffer for 30 min and then monitored on-line for 60 seconds for baseline establishment. For avid binding measurement, sensors with loaded IgGs were exposed to 100 nM antigen (human SIRPA or SIRPβ1 Fc fusion) for 3 min, afterwards they were transferred to assay buffer for 3 min for off-rate measurement. Additional avid binding was determined by loading biotinylated SIRPA monomer on SA sensors and exposure to 100 nM IgG in solution. Monovalent binding measurements were obtained by loading human SIRPA or SIRPβ1 Fc fusion antigens to AHQ sensor and followed by exposure to 100 nM anti-SIRPA antibody Fab. Additional monovalent measurements were made by loading biotinylated human SIRPA or SIRPβ1 monomer to SA sensor followed by exposure to 100 nM Fab in solution. Kinetics data were fit using a 1:1 binding model in the data analysis software provided by ForteBio.
Method for Human SIRPb D1 Fc: as §1
Method for Mouse SIRPA D1 Fc: as §1

B1: SA-39 (antibody, V domains shown)
VH: QVQLVQSGAEVKKPGASVKVSCKASGYTFTSYYMVWVRQAPGQGLEWMGIINPSGGSTSYAQKFQGRVTMTRDTSTSTVYMELSSLRSEDTAVYYCAREGGYGYRAYPYGMDVWGQGTTVTVSS
VL: DIQMTQSPSSLSASVGDRVTITCQASQDISNSLNWYQQKPGKAPKLLIYDASNLETGVPSRFSGSRSGTDFTFTISSLQPEDIATYYCQQVIILPLTFGGGTKVEIK
notes: IgG
B1: the “relative MFI” value was determined as 1.47 fold over background in test [1] and 0.571 fold over background in test [3]. The binding result with Mouse SIRPA D1 Fc is recorded as “no binding (tested: 100 nM)”; in test [2], “no binding (tested: 1 ug/ml)”. For the same molecule, the Kd with Human SIRPA D1 Fc was determined as 3.62 nM; with Human SIRPb D1 Fc, 22.3 nM.

B2: SA-47 (antibody, V domains shown)
VH: QVQLVQSGAEVKKPGASVKVSCKASGYTFTSYYMHWVRQAPGQGLEWMGIINPSGGSTSYAQKFQGRVTMTRDTSTSTVYMELSSLRSEDTAVYYCAREVGVSGWEITYGMDVWGQGTTVTVSS
VL: DIQMTQSPSSVSASVGDRVTITCRASQGISSWLAWYQQKPGKAPKLLIYAASSLQSGVPSRFSGSGSGTDFTLTISSLQPEDFATYYCQQISSYPITFGGGTKVEIK
notes: IgG
As to B2, the entries for the “relative MFI” value in test [1] and in test [3] were 11.3 fold over background and 0.479 fold over background, respectively. Moreover, the binding result was “no binding (tested: 100 nM)” in the test with Mouse SIRPA D1 Fc, “no binding (tested: 100 nM)” in the test with Human SIRPb D1 Fc and “no binding (tested: 1 ug/ml)” in test [2]. For the same molecule, the affinity with Human SIRPA D1 Fc, expressed as Kd, was 15.4 nM.

B3: SA-43 (antibody, V domains shown)
VH: QLQLQESGPGLVKPSETLSLTCTVSGGSISSSSYAWGWIRQPPGKGLEWIGSIYYSGSTYYNPSLKSRVTISVDTSKNQFSLKLSSVTAADTAVYYCARELETSRHDIWGQGTTVTVSS
VL: DIQMTQSPSSVSASVGDRVTITCRASQGISSWLAWYQQKPGKAPKLLIYAASSLQSGVPSRFSGSGSGTDFTLTISSLQPEDFATYYCQQASAFPITFGGGTKVEIK
notes: IgG
In the case of B3, the “relative MFI” value in test [1] is 0.56 fold over background; in test [3], 0.479 fold over background. Also, the binding result is on record as “no binding (tested: 100 nM)” with Mouse SIRPA D1 Fc, “no binding (tested: 100 nM)” with Human SIRPb D1 Fc and “no binding (tested: 1 ug/ml)” in test [2]. Besides, binding with Human SIRPA D1 Fc was characterised by a dissociation constant (Kd) of 10.5 nM.

B4: SA-32 (antibody, V domains shown)
VH: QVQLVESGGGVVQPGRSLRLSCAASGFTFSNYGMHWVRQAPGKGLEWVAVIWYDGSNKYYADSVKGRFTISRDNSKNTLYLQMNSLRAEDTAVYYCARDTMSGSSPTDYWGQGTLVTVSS
VL: EIVMTQSPATLSVSPGERATLSCRASQSVGSNLAWYQQKPGQAPRLLIYGASTRATGIPARFSGSGSGTEFTLTISSLQSEDFAVYYCQQLNVFPWTFGGGTKVEIK
notes: IgG
Take B4: the “relative MFI” value stood at 35.4 fold over background in test [1] and 0.685 fold over background in test [3]. The binding result was “no binding (tested: 100 nM)” with Mouse SIRPA D1 Fc, “no binding (tested: 100 nM)” in the test with Human SIRPb D1 Fc and “no binding (tested: 1 ug/ml)” in test [2]. Moreover, in the test with Human SIRPA D1 Fc, binding was characterised by a dissociation constant (Kd) of 24.4 nM.

B5: SA-29 (antibody, V domains shown)
VH: QVQLQESGPGLVKPSQTLSLTCTVSGGSISSGGYYWSWIRQHPGKGLEWIGNIYYSGSTYYNPSLKSRVTISVDTSKNQFSLKLSSVTAADTAVYYCARDSDTSWGGFDYWGQGTLVTVSS
VL: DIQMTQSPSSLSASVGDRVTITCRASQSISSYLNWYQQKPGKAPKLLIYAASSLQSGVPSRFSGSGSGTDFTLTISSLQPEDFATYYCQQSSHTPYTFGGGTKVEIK
notes: IgG
In the case of B5, the “relative MFI” value was 0.595 fold over background in test [1] and 0.479 fold over background in test [3]. For the same molecule, the binding result was “no binding (tested: 100 nM)” in the test with Mouse SIRPA D1 Fc, “no binding (tested: 100 nM)” with Human SIRPb D1 Fc and “no binding (tested: 1 ug/ml)” in test [2]. For the same molecule, the dissociation constant (Kd) in the test with Human SIRPA D1 Fc was determined as 4.55 nM.

B6: SA-58 (antibody, V domains shown)
VH: QLQLQESGPGLVKPSETLSLTCTVSGGSISSSSYAWGWIRQPPGKGLEWIGSIYYSGSTYYNPSLKSRVTISVDTSKNQFSLKLSSVTAADTAVYYCARLPMGCGSGMDVWGQGTTVTVSS
VL: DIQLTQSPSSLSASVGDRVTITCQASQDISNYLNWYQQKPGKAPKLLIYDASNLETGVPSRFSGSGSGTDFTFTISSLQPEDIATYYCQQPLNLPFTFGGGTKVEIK
notes: IgG
Turning to B6, the “relative MFI” value in test [1] worked out at 50.8 fold over background; in test [3], 0.738 fold over background. Further, the binding result in the test with Mouse SIRPA D1 Fc is recorded as “no binding (tested: 100 nM)”; in the test with Human SIRPb D1 Fc it was “no binding (tested: 100 nM)”; in test [2], “no binding (tested: 1 ug/ml)”. The molecule also yielded a Kd in the test with Human SIRPA D1 Fc of 4.31 nM.

B7: SA-38 (antibody, V domains shown)
VH: QVQLQESGPGLVKPSQTLSLTCTVSGGSISSGGYYWSWIRQHPGKGLEWIGSIYYSGSTYYNPSLKSRVTISVDTSKNQFSLKLSSVTAADTAVYYCAREGAYSLYVNWFDPWGQGTLVTVSS
VL: EIVMTQSPATLSVSPGERATLSCRASQSVSSSLAWYQQKPGQAPRLLIFGASTRATGIPARFSGSGSGTEFTLTISSLQSEDFAVYYCQQYDNYPPITFGGGTKVEIK
notes: IgG
As to B7, the “relative MFI” value in test [1] turned out to be 2.96 fold over background; in test [3], 0.458 fold over background. Moreover, the binding result in the test with Mouse SIRPA D1 Fc is on record as “no binding (tested: 100 nM)”; with Human SIRPb D1 Fc, “no binding (tested: 100 nM)”; in test [2], “no binding (tested: 1 ug/ml)”. Also, the Kd with Human SIRPA D1 Fc was found to be 3.81 nM.

B8: SA-34 (antibody, V domains shown)
VH: QVQLVQSGAEVKKPGASVKVSCKASGYTFTNYGISWVRQAPGQGLEWMGWISAYNGNTNYAQKLQGRVTMTTDTSTSTAYMELRSLRSDDTAVYYCARDVYSSYSYWGQGTLVTVSS
VL: DIQLTQSPSTLSASVGDRVTITCRASQSISSWLAWYQQKPGKAPKLLIYDASSLESGVPSRFSGSGSGTEFTLTISSLQPDDFATYYCQQYELLPPTFGGGTKVEIK
notes: IgG
On to B8, for which the results for the “relative MFI” value in test [1] and in test [3] were 0.806 fold over background and 0.613 fold over background, respectively. The binding result in the test with Mouse SIRPA D1 Fc is recorded as “no binding (tested: 100 nM)”; with Human SIRPb D1 Fc, “no binding (tested: 100 nM)”; in test [2] it was “no binding (tested: 1 ug/ml)”. The molecule further yielded a Kd in the test with Human SIRPA D1 Fc of 26.8 nM.

B9: SA-35 (antibody, V domains shown)
VH: QVQLVQSGAEVKKPGASVKVSCKASGYTFTSYYMHWVRQAPGQGLEWMGIINPSGGSTSYAQKFQGRVTMTRDTSTSTVYMELSSLRSEDTAVYYCAREAGYDIKGFDYWGQGTLVTVSS
VL: DIQMTQSPSTLSASVGDRVTITCRASQSISSWLAWYQQKPGKAPKLLIYKASSLESGVPSRFSGSGSGTEFTLTISSLQPDDFATYYCQQYGSFPLTFGGGTKVEIK
notes: IgG
In the case of B9, the “relative MFI” value in test [1] was determined as 48.2 fold over background; in test [3], 0.491 fold over background. Also, the binding result in the test with Mouse SIRPA D1 Fc is given as “no binding (tested: 100 nM)”; with Human SIRPb D1 Fc, “no binding (tested: 100 nM)”; in test [2], “no binding (tested: 1 ug/ml)”. In addition, the Kd with Human SIRPA D1 Fc amounted to 10.2 nM.

B10: SA-36 (antibody, V domains shown)
VH: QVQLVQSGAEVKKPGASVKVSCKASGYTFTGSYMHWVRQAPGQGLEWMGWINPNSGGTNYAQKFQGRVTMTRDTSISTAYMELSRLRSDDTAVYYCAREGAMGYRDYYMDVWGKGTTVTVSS
VL: EIVLTQSPATLSLSPGERATITCQASQDISSYLAWYQQKPGQAPRLLIYDASNRATGIPARFSGSGSGTDFTLTISSLEPEDFAVYYCQQRTHYPWTFGGGTKVEIK
notes: IgG
In the case of B10, the “relative MFI” value amounted to 27.9 fold over background in test [1] and 0.574 fold over background in test [3]. In addition, the values for the binding result (in the test with Mouse SIRPA D1 Fc; in the test with Human SIRPb D1 Fc; in test [2]) were “no binding (tested: 100 nM)”, “no binding (tested: 100 nM)” and “no binding (tested: 1 ug/ml)”, respectively. The molecule also yielded a Kd with Human SIRPA D1 Fc of 8.67 nM.

B11: SA-31 (antibody, V domains shown)
VH: QVQLVQSGAEVKKPGSSVKVSCKASGGTFSSYAISWVRQAPGQGLEWMGSIIPIFGTANYAQKFQGRVTITADESTSTAYMELSSLRSEDTAVYYCARDRGYPRYSYLDLWGRGTLVTVSS
VL: EIVLTQSPGTLSLSPGERATLSCRASQSVSSSYLAWYQQKPGQAPRLLIYGASSRATGIPDRFSGSGSGTDFTLTISRLEPEDFAVYYCQQFFSYPPTFGGGTKVEIK
notes: IgG
As for B11, the “relative MFI” value in test [1] was found to be 12.4 fold over background; in test [3] it was 0.509 fold over background. Besides, the binding result with Mouse SIRPA D1 Fc is on record as “no binding (tested: 100 nM)”; with Human SIRPb D1 Fc, “no binding (tested: 100 nM)”; in test [2], “no binding (tested: 1 ug/ml)”. Binding with Human SIRPA D1 Fc was characterised by a dissociation constant (Kd) of 6.47 nM.

B12: SA-37 (antibody, V domains shown)
VH: QVQLQESGPGLVKPSQTLSLTCTVSGGSISSGGYYWSWIRQHPGKGLEWIGSIYYSGSTYYNPSLKSRVTISVDTSKNQFSLKLSSVTAADTAVYYCAREGAYSLYVNWFDPWGQGTLVTVSS
VL: EIVLTQSPGTLSLSPGERATLSCRASQSVSSSFLAWYQQKPGQAPRLLIYGASSRATGIPDRFSGSGSGTDFTLTISRLEPEDFAVYYCQQYDGVPITFGGGTKVEIK
notes: IgG
In the case of B12, the “relative MFI” value in test [1] was 1.27 fold over background; in test [3], 0.464 fold over background. The figures for the binding result (with Mouse SIRPA D1 Fc; in the test with Human SIRPb D1 Fc; in test [2]) were “no binding (tested: 100 nM)”, “no binding (tested: 100 nM)” and “no binding (tested: 1 ug/ml)”, respectively. The molecule also showed a dissociation constant (Kd) with Human SIRPA D1 Fc of 10.2 nM.

Broadly, the Kd is a measure of binding affinity in units of concentration. Low values mean tighter binding, high ones weaker binding.
